Assay results from PMC5425604, “Fe65-PTB2 Dimerization Mimics Fe65-APP Interaction” (Frontiers in Molecular Neuroscience, 2017).
Several values for one entry are separate records, joined by “and”; a condition that tells them apart may be missing. Identical values can stand only once.

How the values were obtained:
[1] = biological target: the molecule itself; assay: SEC-MALS; MALS in line with SEC, refractive index; SEC buffer with 5% (v/v) glycerol
[2] = biological target: the molecule itself; assay: SAXS; 0.25-6 mg/mL, 20 mM Na2HPO4 pH 6.5, 150 mM NaCl, 2 mM DTT (reducing), 300 K; monomer to dimer
[3] = biological target: the molecule itself; assay: native gel or EMSA; Blue Native gel of cytosolic and membrane fractions of HEK293 cells expressing Fe65-HA, with or without APP-myc; blots for HA and myc

B1: Human Fe65-PTB2 (residues 534-667), crystallization construct (domain or fragment, UniProt O00213 534-667, looked up)
chain: APKNELVQKFQVYYLGNVPVAKPVGVDVINGALESVLSSSSREQWTPSHVSVAPATLTILHQQTEAVLGECRVRFLSFLAVGRDVHTFAFIMAAGPASFCCHMFWCEPNAASLSEAVQAACMLRYQKCLDARSQ
notes: Fe65 (APBB1), human, PTB2 domain, residues 534-667 of UniProtKB APBB1_HUMAN O00213; source: recombinantly expressed and purified as described previously (Radzimanowski et al., 2008a); final SEC with 5% glycerol
stoichiometry N [1]: 2 and 4

B2: Wildtype Fe65-PTB2 (pETHis construct for NMR and SAXS) (domain or fragment, human, UniProt O00213 534-667, looked up)
chain: B1 chain
notes: Fe65 (APBB1), human, PTB2 domain; limits 534-667 are stated for recombinant Fe65-PTB2 in general, not separately for the pETHis construct; also called wt Fe65-PTB2
stoichiometry N [2]: 2

B3: Fe65-HA (natural protein, human, UniProt O00213 1-710, looked up)
chain: MSVPSSLSQSAINANSHGGPALSLPLPLHAAHNQLLNAKLQATAVGPKDLRSAMGEGGGPEPGPANAKWLKEGQNQLRRAATAHRDQNRNVTLTLAEEASQEPEMAPLGPKGLIHLYSELELSAHNAANRGLRGPGLIISTQEQGPDEGEEKAAGEAEEEEEDDDDEEEEEDLSSPPGLPEPLESVEAPPRPQALTDGPREHSKSASLLFGMRNSAASDEDSSWATLSQGSPSYGSPEDTDSFWNPNAFETDSDLPAGWMRVQDTSGTYYWHIPTGTTQWEPPGRASPSQGSSPQEESQLTWTGFAHGEGFEDGEFWKDEPSDEAPMELGLKEPEEGTLTFPAQSLSPEPLPQEEEKLPPRNTNPGIKCFAVRSLGWVEMTEEELAPGRSSVAVNNCIRQLSYHKNNLHDPMSGGWGEGKDLLLQLEDETLKLVEPQSQALLHAQPIISIRVWGVGRDSGRERDFAYVARDKLTQMLKCHVFRCEAPAKNIATSLHEICSKIMAERRNARCLVNGLSLDHSKLVDVPFQVEFPAPKNELVQKFQVYYLGNVPVAKPVGVDVINGALESVLSSSSREQWTPSHVSVAPATLTILHQQTEAVLGECRVRFLSFLAVGRDVHTFAFIMAAGPASFCCHMFWCEPNAASLSEAVQAACMLRYQKCLDARSQASTSCLPAPPAESVARRVGWTVRRGVQSLWGSLKPKRLGAHTP
notes: Fe65 (APBB1); called full-length Fe65 in the native gel analysis; human stated for Fe65 in general; Printed both as FE65-HA and HA-Fe65; also called HA-Fe65; HA-tagged Fe65; source: HEK293, transfected (pcDNA3.1), in lysate or subcellular fraction
stoichiometry N [3]: 2
